Laboratory results from paper PMC5821850, “Basal condensation of Numb and Pon complex via phase transition during Drosophila neuroblast asymmetric division” (Nature Communications, 2018).
Substitutions are numbered along the chain they refer to. In names and notes the source's numbering stands. Square brackets hold non-standard residues; d marks the D form. Ends that are not written are not given here. pT = C[C@@H](OP(=O)(O)O)[C@H](N)C(=O)O

Columns and labels:
[1] = molecular target: Drosophila Numb PTB domain (aa 65-203) (Drosophila) (UniProt P16554); assay: ITC; Pon fragments (~0.5 mM) injected into PTB proteins (~0.05 mM); 20 °C; 50 mM Tris pH 8.0, 100 mM NaCl, 1 mM EDTA, 1 mM β-ME; one-site binding model
[2] = molecular target: Drosophila Numb PTB domain (aa 65-203) (Drosophila) (UniProt P16554)
[3] = molecular target: Drosophila Numb PTB domain (aa 65-203) (Drosophila) (UniProt P16554); remark: listed apart in the source
[4] = molecular target: Drosophila Numb PTB domain (aa 65–203), P16554-1; assay: ITC; details: parent: 1.80 ± 0.17
Numb PTB R171A [5] = molecular target: T1, Numb PTB R171A (Drosophila, UniProt P16554-1 65-203, R171A); assay: ITC; Pon fragments (~0.5 mM) injected into PTB proteins (~0.05 mM); 20 °C; 50 mM Tris pH 8.0, 100 mM NaCl, 1 mM EDTA, 1 mM β-ME; one-site binding model
T1 sequence: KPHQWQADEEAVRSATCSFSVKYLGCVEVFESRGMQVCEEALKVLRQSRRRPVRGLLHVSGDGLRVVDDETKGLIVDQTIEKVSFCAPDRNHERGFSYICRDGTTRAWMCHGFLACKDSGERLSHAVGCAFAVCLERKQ

[6] = molecular target: T2, Drosophila Numb PTB domain (aa 65-203) (Drosophila, UniProt P16554-1 65-203); assay: as above; details: both partners purified
T2 construct: Numb, Drosophila, PTB domain, residues 65-203; theoretical mass 15.7 kDa in the ultracentrifugation; also called dNumb PTB; Numb 65-203; source: E. coli BL21 (DE3), purified (Ni2+-NTA, SEC); not shown: His tag, N-terminal, cleaved
T2 sequence (looked up): T1 sequence with A107R

[7] = molecular target: T3, Drosophila Numb PTB domain (aa 65–203) (Drosophila, UniProt P16554-1 65-203); assay: ITC
T3 chain: T1 sequence with A107R

[8] = molecular target: T3, Drosophila Numb PTB domain (aa 65–203); assay: ITC
Numb PTB R171A [9] = molecular target: T1, Numb PTB R171A; assay: ITC
[10] = molecular target: T4, Drosophila Numb PTB domain (aa 65–203) (Drosophila, UniProt P16554-1 65-203); assay: AUC; sedimentation velocity, 42,000 rpm, 4 °C, interference detection, SEDFIT; Numb PTB with three molar ratios of Nak AB, or with Pon A2B2; details: both partners purified
T4 construct: Numb PTB domain, Drosophila, Uniprot P16554-1, aa 65-203; source: E. coli BL21 (DE3), purified (Ni2+-NTA, SEC); not shown: His tag, N-terminal, cleaved
T4 sequence (looked up): T1 sequence with A107R

[11] = molecular target: T4, Drosophila Numb PTB domain (aa 65–203); assay: ITC; ITC200, 20 °C, buffer A (50 mM Tris pH 8.0, 1 mM EDTA, 1 mM β-ME, 100 mM NaCl); Pon fragments (~0.5 mM) injected into PTB proteins (~0.05 mM); one-site binding model; details: both partners purified

## Pon 157-200 (A3B3) (domain or fragment)
[1]
  Kd: 12.2 µM

## Pon N-terminal fragment (aa 1–228), A1B1A2B2A3B3 (domain or fragment)
[2]
  in vitro phase transition, sedimentation assay: share of the proteins in the condensed liquid phase against the molar ratio, highest at 1:3 Pon A1B3 to Numb PTB: > 90%
[3]
  in vitro phase transition, sedimentation assay: share of Numb PTB and Pon A1B3 recovered from the condensed liquid phase, 1:1 mixture, 25 to 100 μM: 80%

## Pon A2B2 fragment N152A; P153A
[4]
  Kd: 49.3 µM

## Pon A2B2 N152P153A (domain or fragment)
[1]
  Kd: 48.3 µM

## Pon 130-162 (A2B2) (domain or fragment)
[1]
  Kd: 1 µM
Numb PTB R171A [5]
  Kd: > 100 µM

## Pon 110-148 (B1A2) (domain or fragment)
[1]
  Kd: 8.77 µM
Numb PTB R171A [5]
  Kd: > 100 µM

B1: Pon 124-148/130-148 (A2) (domain or fragment)
chain: KKREHACFENPGLNLELPE
[6]
  Kd: > 100 µM

B2: Pon single-AB fragment with E121A in the B1 motif (peptide)
chain: QQKLPTNPFAVLRQPPKKKKREHACFENPGLNLE
[7]
  Kd: > 100 µM

B3: Pon B1A2 fragment (peptide)
chain: B2 chain with A10E
[8]
  Kd: 8.77 µM
Numb PTB R171A [9]
  Kd: > 100 µM

B4: Pon B1A2 E121A (domain or fragment)
chain: QQQQKLPTNPFAVLRQPPKKKKREHACFENPGLNLELPE
[6]
  Kd: > 100 µM

B5: Pon A1 (peptide)
chain: AAVASTESCFTNAAFSST
[8]
  Kd: > 70 µM

B6: Pon 1-116 (A1) (domain or fragment)
chain: MLETKSIAALAFTETPRKRKRETLYKNAAPPPNPQQQPPEKDAQDAAVASTESCFTNAAFSSTPKKLMVARRRLAKENSQPNPFPGLEVKSIADLAQKQQHQQHHQQQQQQQQKLP
[6]
  Kd: ~70 µM

B7: Pon 1-130/41-130 (A1B1) (domain or fragment)
chain: MLETKSIAALAFTETPRKRKRETLYKNAAPPPNPQQQPPEKDAQDAAVASTESCFTNAAFSSTPKKLMVARRRLAKENSQPNPFPGLEVKSIADLAQKQQHQQHHQQQQQQQQKLPTNPFEVLRQPPKKK
[6]
  Kd: 18.1 ± 2.2 µM

B8: Pon A2B2 K148A (domain or fragment)
chain: KKREHACFENPGLNLELPEAQFNPYEVVRSATT
[6]
  Kd: 0.48 ± 0.02 µM

B9: Pon A2B2 R158A (domain or fragment)
chain: B8 chain with A20K, R29A
[6]
  Kd: > 100 µM

B10: Pon A2B2 Y154E (domain or fragment)
chain: B8 chain with A20K, Y25E
[6]
  Kd: > 100 µM

B11: pPon peptide (peptide)
peptide: ESCFTNAAFSS[pT]PKK
notes: Pon, Drosophila; the peptide holds the A1 motif FTNAAF; the range is counted from N57 of the A1 motif; source: synthetic peptide
[6]
  Kd: 11.3 ± 0.37 µM

B12: Nak AB fragment (Numb-associated kinase, C-terminal A and B motifs) (peptide)
chain: QNSAKTGFSNMSFEDFPSDQEMDRLSRTIPFEVVRNEKML
[10]
  stoichiometry N: 1

B13: Pon single-AB fragment with N152,P153A in the B2 motif (peptide)
chain: KKKKREHACFENPGLNLELPEKQFAAYEVVRSA
[7]
  Kd: 49.3 µM

B14: Pon single-AB fragment with Y154E in the B2 motif (peptide)
chain: B13 chain with A25N, A26P, Y27E
[7]
  Kd: > 100 µM

B15: Pon A2B2 K149A (peptide)
chain: B13 chain with K22A, A25N, A26P
[7]
  Kd: 5.46 µM

B16: Pon A2B2 fragment (peptide)
chain: B13 chain with A25N, A26P
[8]
  Kd: 1.8 µM
Numb PTB R171A [9]
  Kd: > 100 µM

B17: Pon single-AB fragment with R158A in the B2 motif (peptide)
chain: B13 chain with A25N, A26P, R31A
[7]
  Kd: > 100 µM

B18: pPon peptide (peptide)
peptide: ESCFTNAAFSS[pT]PKK
notes: Pon, Drosophila; stretch with the A1 motif FTNAAF (N57) followed by the phosphorylated threonine; limits worked out by setting the Asn of FTNAAF to N57 of the A1 motif; source: synthetic peptide (commercially synthesized)
[11]
  Kd: ~11 µM

B19: Pon A3B3 fragment (peptide)
chain: VRSATTPAKGFVNPALNLRGSDAPASLNPFEIHRPSEASEAACN
[8]
  Kd: 12.2 µM
